Read-outs that look alike come from different tables or passages of the source.

Common to all, as to type: binding
The subject of one test is SARS-CoV-2 gRNA. As to conditions: […]; LC-MS/MS; Probe I sample (first 199 lines of Table 2).
Test [1] deals with SARS-CoV-2 gRNA and sgRNAs.
For another test, the system named is gRNA of HCoV-OC43.
In another test the test system is HCoV-OC43 gRNA and sgRNA. As to conditions: for target (unweighted spectral count): OC43 Probe II, infected cells.

B1: ILF3: host protein, UniProt Q12906 (protein, UniProt Q12906 1-894, looked up)
Interleukin enhancer-binding …: MRPMRIFVNDDRHVMAKHSSVYPTQEELEAVQNMVSHTERALKAVSDWIDEQEKGSSEQAESDNMDVPPEDDSKEGAGEQKTEHMTRTLRGVMRVGLVAKGLLLKGDLDLELVLLCKEKPTTALLDKVADNLAIQLAAVTEDKYEILQSVDDAAIVIKNTKEPPLSLTIHLTSPVVREEMEKVLAGETLSVNDPPDVLDRQKCLAALASLRHAKWFQARANGLKSCVIVIRVLRDLCTRVPTWGPLRGWPLELLCEKSIGTANRPMGAGEALRRVLECLASGIVMPDGSGIYDPCEKEATDAIGHLDRQQREDITQSAQHALRLAAFGQLHKVLGMDPLPSKMPKKPKNENPVDYTVQIPPSTTYAITPMKRPMEEDGEEKSPSKKKKKIQKKEEKAEPPQAMNALMRLNQLKPGLQYKLVSQTGPVHAPIFTMSVEVDGNSFEASGPSKKTAKLHVAVKVLQDMGLPTGAEGRDSSKGEDSAEETEAKPAVVAPAPVVEAVSTPSAAFPSDATAEQGPILTKHGKNPVMELNEKRRGLKYELISETGGSHDKRFVMEVEVDGQKFQGAGSNKKVAKAYAALAALEKLFPDTPLALDANKKKRAPVPVRGGPKFAAKPHNPGFGMGGPMHNEVPPPPNLRGRGRGGSIRGRGRGRGFGGANHGGYMNAGAGYGSYGYGGNSATAGYSQFYSNGGHSGNASGGGGGGGGGSSGYGSYYQGDNYNSPVPPKHAGKKQPHGGQQKPSYGSGYQSHQGQQQSYNQSPYSNYGPPQGKQKGYNHGQGSYSYSNSYNSPGGGGGSDYNYESKFNYSGSGGRSGGNSYGSGGASYNPGSHGGYGGGSGGGSSYQGKQGGYSQSNYNSPGSGQNYSGPPSSYQSSQGGYGRNADHSMNYQYR
B1: in the test with SARS-CoV-2 gRNA, the “target (unweighted spectral count of the protein in the RNP capture)” value was 15. In addition, the “target (unweighted spectral count in RNP capture)” value in test [1] (Probe II capture, […], LC-MS/MS LFQ) came to 15. Further, in test [1] (no-probe control pull-down, used as background for Probe II), the “background (unweighted spectral count in control)” value was found to be 1. In addition, the “target (spectral count)” value is listed as 39 with gRNA of HCoV-OC43 (type g_36_m, HCoV-OC43-infected HCT-8 cells, 36 hpi, Probe I); 31 in the test on HCoV-OC43 gRNA and sgRNA (type s_36_m, HCoV-OC43-infected HCT-8 cells, 36 hpi, Probe II). The “background (spectral count)” value is given as 3 in the test with gRNA of HCoV-OC43 (type g_36_m, uninfected-probe control, 36 hpi, Probe I); 3 in the test on HCoV-OC43 gRNA and sgRNA (type s_36_m, uninfected-probe control, 36 hpi, Probe II). Further, the “target (spectral count, OC43 Probe I RNP capture)” value in the test on gRNA of HCoV-OC43 (type n_48_v: 48 hours post-infection, infected cells, OC43 Probe I, unweighted spectral count) came out at 38. In the test with gRNA of HCoV-OC43 (type n_48_v: 48 hours post-infection, no-probe control on infected cells), the “background (spectral count, no-probe control)” value was 2. For the same molecule, the “target (unweighted spectral count, OC43 Probe II capture)” value with HCoV-OC43 gRNA and sgRNA (36 hpi, type n_36_v, tested against no-probe control, FDR<10%) was 31. Also, the “target (unweighted spectral count)” value in the test on HCoV-OC43 gRNA and sgRNA (12 hpi (type n_12_v), tested against no-probe control) was 7; in the test on HCoV-OC43 gRNA and sgRNA (24 hpi (type n_24_v), tested against no-probe control), 14. Besides, in the test with HCoV-OC43 gRNA and sgRNA (type n_48_v, 48 hpi, OC43 Probe II capture on infected cells), the “target (unweighted spectral count, OC43 Probe II)” value is reported as 36. Besides, the “background (unweighted spectral count, no-probe control)” value with HCoV-OC43 gRNA and sgRNA (type n_48_v, 48 hpi, no-probe control on infected cells) is listed as 2.

The values are drawn from patent publication US20230407373A1 (priority 2020, published 2023).
